According to patent publication US20240293478A1:

Assays:
[1] = target: IL-12 receptor on HEK-Blue IL-12 cells (UniProt P42701); experiment: cell-based or functional assay
[2] = target: mouse TGF-β1 (R&D systems) (mouse) (UniProt P04202); experiment: direct ELISA with mouse TGF-β1; supernatant of transfected HEK293T cells
[3] = target: mouse TGF-β1 (R&D systems) (mouse) (UniProt P04202); experiment: direct ELISA with mouse TGF-β1; concentrated supernatant of transfected HEK293T cells
[4] = target: recombinant murine CTLA-4-human IgG1 Fc chimera (R&D Systems) (mouse; human) (UniProt P09793); experiment: competitive ELISA; competitor mouse CD80 coated at 100 ng/ml, 10 ng/ml murine CTLA-4-human IgG1 Fc mixed with HEK293T supernatant, anti-human IgG1-HRP
[5] = target: recombinant murine CTLA-4-human IgG1 Fc chimera (R&D Systems) (mouse; human) (UniProt P09793); experiment: competitive ELISA; competitor mouse CD86 coated at 100 ng/ml, 10 ng/ml murine CTLA-4-human IgG1 Fc mixed with HEK293T supernatant, anti-human IgG1-HRP

IL-12 receptor on HEK-Blue IL-12 cells, sequence (Q99665 24-862, chain 2 of 2, other chains not shown): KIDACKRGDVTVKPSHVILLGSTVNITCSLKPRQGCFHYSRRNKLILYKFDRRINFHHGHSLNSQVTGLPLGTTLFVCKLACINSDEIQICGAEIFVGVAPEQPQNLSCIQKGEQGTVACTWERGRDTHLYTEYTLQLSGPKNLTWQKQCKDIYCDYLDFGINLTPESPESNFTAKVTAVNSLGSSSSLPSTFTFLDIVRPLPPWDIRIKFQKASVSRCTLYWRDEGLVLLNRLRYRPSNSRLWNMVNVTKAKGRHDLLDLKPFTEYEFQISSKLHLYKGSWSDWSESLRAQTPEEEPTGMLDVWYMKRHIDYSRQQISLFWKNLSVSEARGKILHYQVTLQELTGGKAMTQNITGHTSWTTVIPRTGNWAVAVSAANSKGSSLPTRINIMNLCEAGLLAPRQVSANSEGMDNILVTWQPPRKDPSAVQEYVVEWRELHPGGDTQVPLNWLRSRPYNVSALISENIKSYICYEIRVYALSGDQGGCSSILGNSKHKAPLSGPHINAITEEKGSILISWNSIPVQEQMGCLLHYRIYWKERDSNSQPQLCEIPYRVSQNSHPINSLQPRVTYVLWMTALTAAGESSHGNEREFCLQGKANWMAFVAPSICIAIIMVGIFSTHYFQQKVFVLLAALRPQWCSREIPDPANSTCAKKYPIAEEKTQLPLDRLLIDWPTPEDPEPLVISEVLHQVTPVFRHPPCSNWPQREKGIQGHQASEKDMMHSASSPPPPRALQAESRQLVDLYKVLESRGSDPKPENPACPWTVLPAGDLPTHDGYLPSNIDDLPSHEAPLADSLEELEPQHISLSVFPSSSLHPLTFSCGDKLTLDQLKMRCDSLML
mouse TGF-β1 (R&D systems) (mouse), sequence (P04202 279-390 limits assumed): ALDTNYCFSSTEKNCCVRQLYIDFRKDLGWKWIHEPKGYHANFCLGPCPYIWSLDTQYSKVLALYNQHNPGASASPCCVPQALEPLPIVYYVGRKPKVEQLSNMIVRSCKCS
recombinant murine CTLA-4-human IgG1 Fc chimera (R&D Systems) (mouse; human), sequence (P09793 36-162 limits assumed, change not shown): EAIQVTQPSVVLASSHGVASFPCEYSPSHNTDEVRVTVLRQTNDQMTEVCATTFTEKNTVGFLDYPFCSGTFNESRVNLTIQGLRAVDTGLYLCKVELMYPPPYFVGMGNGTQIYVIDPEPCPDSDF

Substance	STAT4-SEAP (Absorbance/% GFP); transfected HEK cells co-cultured with HEK-Blue IL-12 cells (Absorbance/% GFP) [1]	further results
Human membrane bound IL-12p70 (ligand)	0.237	
Mouse membrane bound IL-12p70 (ligand)	0.117	
Soluble mouse TGFβ receptor II Fc (from UniProt Q62312 24-166) (Fc fusion)		Absorbance at 450 nm (absorbance (450 nm)) [2]: 1.51; Absorbance at 450 nm (absorbance (450 nm)) [3]: 1.52
huIL-12p70 (ligand)	0.11	
ipilimumab scFv antibody fragment		% CD80 Blockade Activity [4]: 7%; % CD86 Blockade Activity [5]: 32.5%
muIL-12p70 (ligand)	0.11	
